Here are results for 75 sequences from the supplement of paper PMC7877785.

A short description of this data set: self-splicing fitness, log relative to wild type (ln ratio); higher = more splicing; Tetrahymena group I intron in knt gene, E. coli kanamycin selection, DiMSum; sequences stand for … in CUCUCU…GGAGGGAAAAGUUAUCAGGCAUGCACCUGGUAGCUAGUCUUUAAACCAAUAGAUUGCAUCGGUUUAAAAGGCAAGACCGUCAAAUUGCGGGAAAGGGGUCAACAGCCGUUCAGUACCAAGUCUCAGGGGAAACUUUGAGAUGGCCUUGCAAAGGGUAUGGUAAUAAGCUGACGGACAUGGUCCUAACCACGCAGCCAAGUCCUAAGUCAACAGAUCUUCUGUUGAUAUGGAUGCAGUUCACAGACUAAAUGUCGGUCGGGGAAGAUGUAUUCUUCUCAUAAGAUAUAGUCGGACCUCUCCUUAAUGGGAGCUAGCGGAUGAAGUGAUGCAACACUGGAGCCGCUGGGAACUAAUUUGUAUGCGAAAGUAUAUUGAUUAGUUUUGGAGUACUCGUGGUCG
In a few lines: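 Fitness was computed with DiMSum as the error-weighted combination of replicate fold changes, kanamycin versus none, each normalised to wild type. The library randomised all eight intron nucleotides of the P1ex region, with the intron placed in the knt kanamycin-resistance gene on pET-22b(+) in E. coli BL21(DE3). Six replicate transformations were grown overnight at 37°C or 30°C on LB agar with or without 25 μg/mL kanamycin, plus 100 μg/mL carbenicillin, 50 μM IPTG and 0.2% rhamnose. Pooled colonies were amplicon-sequenced on an Illumina HiSeq 2500.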

± gives the uncertainty stated by the source.

For the sequence ACCAAGCAAUAUUACGGGGU, the “self-splicing fitness (ln)” value was -3.66 ± 0.14 (30 °C) and -3.5 ± 0.19 (37 °C). In the case of ACCAAGCAAUAUUACGGGUC, the “self-splicing fitness (ln)” value (30 °C) was -4.12 ± 0.17 and the “self-splicing fitness (ln)” value (37 °C) is -2.67 ± 0.14. The like results for ACCAAGCAAUAUUACGGGUU were, in that order, -4.06 ± 0.14 and -3.14 ± 0.17. The like results for ACCAAGCAAUAUUACGGUCG were, in that order, -3.81 ± 0.22 and -2.56 ± 0.15. The like results for ACCAAGCAAUAUUACGUAAG were, in that order, -2.18 ± 0.063 and -1.37 ± 0.098.

Regarding ACCAAGCAAUAUUACGUCAA, the “self-splicing fitness (ln)” value is, setting by setting: (30 °C) -3.35 ± 0.17; (37 °C) -3 ± 0.16. ACCAAGCAAUAUUACGUCGU: the “self-splicing fitness (ln)” value (30 °C) was -2.34 ± 0.076 and the “self-splicing fitness (ln)” value (37 °C) is -1.88 ± 0.11. Consider ACCAAGCAAUAUUACGUCUG, for which the “self-splicing fitness (ln)” value (30 °C) is -2.55 ± 0.1 and the “self-splicing fitness (ln)” value (37 °C) was -1.02 ± 0.1. The like results for ACCAAGCAAUAUUACGUUGA were, in that order, -2.83 ± 0.12 and -2.01 ± 0.11.

For ACCCAGCAAUAUUACGAAGU, the “self-splicing fitness (ln)” value is -0.678 ± 0.058 (30 °C) and 0.183 ± 0.074 (37 °C). As for ACCCAGCAAUAUUACGACAC, the “self-splicing fitness (ln)” value runs as follows: (30 °C) -2.41 ± 0.091; (37 °C) -0.292 ± 0.083. The like results for ACCCAGCAAUAUUACGACGC were, in that order, 0.24 ± 0.085 and 0.483 ± 0.11. In the case of ACCCAGCAAUAUUACGAGGA, the “self-splicing fitness (ln)” value is -0.706 ± 0.068 (30 °C) and -1.08 ± 0.077 (37 °C). The like results for ACCCAGCAAUAUUACGAGUU were, in that order, -1.14 ± 0.048 and -0.101 ± 0.061. The like results for ACCCAGCAAUAUUACGAUGG were, in that order, -2.94 ± 0.095 and -1.26 ± 0.085. On to ACCCAGCAAUAUUACGAUUU, for which the “self-splicing fitness (ln)” value reads like this: (30 °C) -0.881 ± 0.054; (37 °C) 0.0888 ± 0.069.

In the case of ACCCAGCAAUAUUACGCACG, the “self-splicing fitness (ln)” value (30 °C) is -1.86 ± 0.067 and the “self-splicing fitness (ln)” value (37 °C) is -1.01 ± 0.084. In the case of ACCCAGCAAUAUUACGCCAG, the “self-splicing fitness (ln)” value reads like this: (30 °C) -3.26 ± 0.21; (37 °C) -2.55 ± 0.33.

With ACCCAGCAAUAUUACGCUAU, the “self-splicing fitness (ln)” value is, setting by setting: (30 °C) -0.847 ± 0.066; (37 °C) -0.75 ± 0.08. The like results for ACCCAGCAAUAUUACGCUGG were, in that order, -2.83 ± 0.14 and -2.4 ± 0.18.

Consider ACCCAGCAAUAUUACGGACA, for which the “self-splicing fitness (ln)” value was -0.0478 ± 0.08 (30 °C) and -0.181 ± 0.089 (37 °C). For ACCCAGCAAUAUUACGGCUC the same measures were -1.46 ± 0.058 and -0.423 ± 0.073. Take ACCCAGCAAUAUUACGGCUU: the “self-splicing fitness (ln)” value was -0.338 ± 0.071 (30 °C) and 0.053 ± 0.089 (37 °C). The like results for ACCCAGCAAUAUUACGGGAC were, in that order, -2.71 ± 0.1 and -1.54 ± 0.1. As for ACCCAGCAAUAUUACGGGAU, the “self-splicing fitness (ln)” value (30 °C) was -2.6 ± 0.085 and the “self-splicing fitness (ln)” value (37 °C) was -1.01 ± 0.076.

Consider ACCCAGCAAUAUUACGGGUU, for which the “self-splicing fitness (ln)” value was -4.18 ± 0.12 (30 °C) and -2.84 ± 0.13 (37 °C). For ACCCAGCAAUAUUACGUCCC the same measures were -1.18 ± 0.16 and -0.981 ± 0.17. The like results for ACCCAGCAAUAUUACGUCUC were, in that order, -1.89 ± 0.078 and -0.796 ± 0.094. ACCCAGCAAUAUUACGUGGC: the “self-splicing fitness (ln)” value was -2.83 ± 0.13 (30 °C) and -1.69 ± 0.11 (37 °C). For ACCCAGCAAUAUUACGUGUU the same measures were -1.45 ± 0.047 and -0.111 ± 0.061. The like results for ACCGAGCAAUAUUACGAACA were, in that order, -3.15 ± 0.47 and -1.43 ± 0.17. As to ACCGAGCAAUAUUACGAACC, the “self-splicing fitness (ln)” value (30 °C) is -2.9 ± 0.39. ACCGAGCAAUAUUACGAAGU: the “self-splicing fitness (ln)” value (30 °C) was -1.93 ± 0.16 and the “self-splicing fitness (ln)” value (37 °C) is -1.68 ± 0.22. For ACCGAGCAAUAUUACGACGG the same measures were -2.24 ± 0.2 and -0.893 ± 0.21.

On to ACCGAGCAAUAUUACGACGU, for which the “self-splicing fitness (ln)” value was -2.04 ± 0.1 (30 °C) and -0.637 ± 0.11 (37 °C). The like results for ACCGAGCAAUAUUACGACUC were, in that order, -1.44 ± 0.29 and -1.59 ± 0.22. The like results for ACCGAGCAAUAUUACGACUU were, in that order, -1.12 ± 0.087 and -0.353 ± 0.11. The like results for ACCGAGCAAUAUUACGAGGA were, in that order, -2.77 ± 0.21 and -2.99 ± 0.38.

Take ACCGAGCAAUAUUACGAGUC: the “self-splicing fitness (ln)” value was -4.62 ± 0.3 (30 °C) and -3.25 ± 0.22 (37 °C). As for ACCGAGCAAUAUUACGCAAU, the “self-splicing fitness (ln)” value reads like this: (30 °C) -2.71 ± 0.16; (37 °C) -2.36 ± 0.32. The like results for ACCGAGCAAUAUUACGCAGA were, in that order, -2.2 ± 0.19 and -2.51 ± 0.23. Consider ACCGAGCAAUAUUACGCCCG, for which the “self-splicing fitness (ln)” value is, setting by setting: (30 °C) -2.05 ± 0.29; (37 °C) -1.28 ± 0.33. As to ACCGAGCAAUAUUACGCGCC, the “self-splicing fitness (ln)” value reads like this: (30 °C) -3.19 ± 0.25; (37 °C) -3.32 ± 0.43. The like results for ACCGAGCAAUAUUACGCGUU were, in that order, -2.95 ± 0.16 and -1.58 ± 0.18. As to ACCGAGCAAUAUUACGCUGG, the “self-splicing fitness (ln)” value by setting is: (30 °C) -4.24 ± 0.26; (37 °C) -2.13 ± 0.21. With ACCGAGCAAUAUUACGGAAG, the “self-splicing fitness (ln)” value is -4.18 ± 0.34 (30 °C) and -1.93 ± 0.43 (37 °C). For ACCGAGCAAUAUUACGGCCA, the “self-splicing fitness (ln)” value is -0.778 ± 0.13 (30 °C) and -0.469 ± 0.14 (37 °C). For ACCGAGCAAUAUUACGGCCC the same measures were -2.37 ± 0.21 and -1.89 ± 0.29.

As for ACCGAGCAAUAUUACGGCGC, the “self-splicing fitness (ln)” value reads like this: (30 °C) -1.24 ± 0.14; (37 °C) -0.396 ± 0.16. The like results for ACCGAGCAAUAUUACGGCUA were, in that order, -0.869 ± 0.096 and -0.288 ± 0.091. The like results for ACCGAGCAAUAUUACGGCUG were, in that order, -1.28 ± 0.073 and -1.24 ± 0.1. With ACCGAGCAAUAUUACGGGCG, the “self-splicing fitness (ln)” value reads like this: (30 °C) -1.64 ± 0.083; (37 °C) -0.0363 ± 0.088.

Turning to ACCGAGCAAUAUUACGGUCA, the “self-splicing fitness (ln)” value is, setting by setting: (30 °C) -1.22 ± 0.12; (37 °C) -1.06 ± 0.14. As to ACCGAGCAAUAUUACGGUUC, the “self-splicing fitness (ln)” value (30 °C) was -3.5 ± 0.43.

As for ACCGAGCAAUAUUACGUCCA, under “37 °C”, the “self-splicing fitness (ln)” value is -0.553 ± 0.21. In the case of ACCGAGCAAUAUUACGUGAU, the “self-splicing fitness (ln)” value (30 °C) was -3.36 ± 0.13 and the “self-splicing fitness (ln)” value (37 °C) was -2.06 ± 0.12. For ACCUAGCAAUAUUACGAAUC the same measures were -2.94 ± 0.15 and -1.07 ± 0.13. In the case of ACCUAGCAAUAUUACGACCA, the “self-splicing fitness (ln)” value was -1.25 ± 0.16 (30 °C) and 0.323 ± 0.17 (37 °C). For ACCUAGCAAUAUUACGAGCU the same measures were -0.918 ± 0.075 and -0.237 ± 0.09. On to ACCUAGCAAUAUUACGCUCU, for which the “self-splicing fitness (ln)” value is -0.243 ± 0.096 (30 °C) and -0.447 ± 0.098 (37 °C). For ACCUAGCAAUAUUACGCUUC the same measures were -1.2 ± 0.1 and -1.1 ± 0.11. The like results for ACCUAGCAAUAUUACGGACG were, in that order, -0.864 ± 0.07 and -0.114 ± 0.1. Regarding ACCUAGCAAUAUUACGGAGC, the “self-splicing fitness (ln)” value (30 °C) was -2.67 ± 0.12 and the “self-splicing fitness (ln)” value (37 °C) was -1.28 ± 0.14. The like results for ACCUAGCAAUAUUACGGCAC were, in that order, -0.933 ± 0.062 and -0.492 ± 0.07. For ACCUAGCAAUAUUACGGCAG the same measures were -3.99 ± 0.19 and -1.16 ± 0.14. For ACCUAGCAAUAUUACGGGCG the same measures were -0.0397 ± 0.068 and -0.0691 ± 0.084. Regarding ACCUAGCAAUAUUACGGGUU, the “self-splicing fitness (ln)” value (30 °C) was -2.78 ± 0.14 and the “self-splicing fitness (ln)” value (37 °C) was -1.95 ± 0.14. For ACCUAGCAAUAUUACGGUUA the same measures were -2.38 ± 0.18 and -1.57 ± 0.14. The like results for ACCUAGCAAUAUUACGUAGC were, in that order, -1.81 ± 0.12 and -0.966 ± 0.14. The like results for ACCUAGCAAUAUUACGUCCG were, in that order, -2.21 ± 0.14 and -0.377 ± 0.19.

Regarding ACCUAGCAAUAUUACGUGAG, the “self-splicing fitness (ln)” value (30 °C) was -0.357 ± 0.048 and the “self-splicing fitness (ln)” value (37 °C) was -0.0328 ± 0.061. Consider ACCUAGCAAUAUUACGUGCU, for which the “self-splicing fitness (ln)” value by setting is: (30 °C) -2.56 ± 0.092; (37 °C) -1.31 ± 0.098. For ACCUAGCAAUAUUACGUUCA the same measures were -1.4 ± 0.099 and -1.05 ± 0.12.

Consider ACCUAGCAAUAUUACGUUCC, for which the “self-splicing fitness (ln)” value by setting is: (30 °C) -1.5 ± 0.086; (37 °C) -0.914 ± 0.12. For ACGAAGCAAUAUUACGAAAU the same measures were -3.34 ± 0.2 and -1.5 ± 0.17.
